Experimental data from article PMC10905646 (Molecular psychiatry, 2023).

Molecular target: T1, 6×His-tagged Kv3.1 T1 domain (His-31T1) (UniProt P25122 1-190)
T1 sequence (looked up): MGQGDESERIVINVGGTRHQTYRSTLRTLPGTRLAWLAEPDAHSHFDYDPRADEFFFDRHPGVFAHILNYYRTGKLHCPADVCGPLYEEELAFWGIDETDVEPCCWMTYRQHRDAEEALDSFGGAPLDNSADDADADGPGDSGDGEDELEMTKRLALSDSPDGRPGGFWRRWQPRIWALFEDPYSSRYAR
Assay: SPR

Kd: 62.5 ± 18.4 nM
B1: GST-fused MAP6 Mn modules (GST-M115–221; aa 115–221 from MAP6N) (domain or fragment, UniProt Q63560 115-221, looked up)
chain: ADSVMRQDYRAWKVQRPEPSCRPRSEYQPSDAPFERETQYQKDFRAWPLPRRGDHPWIPKPVQIPATSQPSPPVLGMPKRRPQSQERGPIQLSADARDPEGAGGAGV
